Test results reported in US20090221680, “Aptamers that bind thrombin with high affinity” (published 2009).

Key:
[1] = target: T1, thrombin (alpha-thrombin) (Homo sapiens, UniProt P00734;P00734 P00734:315-363,P00734:364-622); test: filter
[2] = target: T1, thrombin (alpha-thrombin); test: filter; 10 nM thrombin
[3] = target: prothrombin (Homo sapiens, UniProt P00734 P00734:44-622); test: filter; 50 nM prothrombin; details: tags: Athens Research
Procedure: Dot blot binding assays were performed throughout the selections to monitor the protein binding affinity of the pools. Trace ³²P-labeled RNA was combined with a dilution series of human Thrombin (1 nM-1000 nM) and incubated at room temperature for 30 minutes in 1×DPBS (w/ Ca²⁺ and Mg²⁺) (Gibco, Catalog #14040, Invitrogen, Carlsbad, Calif.) plus 0.1 mg/ml BSA in a final volume of 30 μl. The binding reactions were analyzed by nitrocellulose filtration using a Minifold I dot-blot, 96-well vacuum filtration manifold (Schleicher & Schuell, Keene, N.H.). A three-layer filtration medium was used, consisting (from top to bottom) of Protran nitrocellulose (Schleicher & Schuell, Keene, N.H.), Hybond-P nylon (Amersham Biosciences, Piscataway, N.J.) and GB002 gel blot paper (Schleicher & Schuell, Keene, N.H.). RNA that is bound to protein is captured on the nitrocellulose filter, whereas the non-protein bound RNA is captured on the nylon filter. The gel blot paper was included simply as a supporting medium for the other filters. Following filtration, the filter layers were separated, dried and exposed on a phosphor screen (Amersham Biosciences, Piscataway, N.J.) and quantified using a Storm 860 Phosphorimager® blot imaging system (Amersham Biosciences, Piscataway, N.J.).
Based on pool binding monitored throughout the selections as described above, Round 9 Pools from both Selection #2 and #3 were also cloned using a TOPO TA Cloning kit (Invitrogen, Carlsbad, Calif.) according to manufacturer's instructions, and sequenced. Of the 136 sequences obtained from Round 9 of both selections, 130 unique sequences were selected for assaying in a single-point dot blot screen against thrombin and prothrombin to test for selective binding to thrombin. Clones were ordered from IDT (Coralville, Iowa) at 25 μmole synthesis scale. Clone transcripts were 5′ end labeled with γ̅³²P ATP and spin purified with Centrisep columns (Princeton Separations, Adelphia, N.J.) to remove excess label. Trace amounts of labeled clone were incubated with +/−10 nM Thrombin (or +/−50 nM prothrombin) and 0.1 mg/ml BSA in a total volume of 30 μl 1×DPBS (w/ Ca²⁺ and Mg²⁺) (Gibco, Catalog #14040, Invitrogen, Carlsbad, Calif.) for 30 minutes. Post incubation, the binding reaction applied the dot-blot binding assay apparatus previously described.

Binder	Kd [1] [nM]	binding signal [2] [% bound]	binding signal [3] [% bound]
AAUGAUTAGGTTGGGTAGGGTGGTAUCAUU (XNA, 2'-OMe 1-6,25-30, rest DNA) [ARC2828]	0.33	–	–
TCCCGTTCGGTCCGTATACTGGTGGTGGTTGGGTGGCTGAGGATCGATC (ssDNA) [AMX(399)_F4]	–	28.1	25
CUGCCTAGGTTGGGTAGGGTGGTGGCAG (XNA, 2'-OMe 1-4,26-28, rest DNA) [ARC2832]	1.88	–	–
TCCCGATCGCTGTCCTAGGATGGGTAGGGTGGTGGCTGAGGATCGATC (ssDNA) [AMX(399)_G10]	–	38.4	–
TCCCATGTGTTAGATCCGTGTGGTTGGACTGGGTGGCTGAGGATCGATC (ssDNA) [AMX(398)_C3]	–	10.8	–
ACTGCCTAGGTTGGGTAGGGTGGTGGCAGT (ssDNA, PS linkage between nt 14 and 15) [ARC2657]	0.219	–	–
TCCTTGTCGAGCCTTGGGGTAGTGTTGGTTTGGGTGGCTGAGGATCGATC (ssDNA) [AMX(399)_F3]	–	9.8	8.7
ACTGCCTAGGTTGGGTAGGGTGGTGGCAGT (ssDNA, PS linkage between nt 17 and 18) [ARC2660]	0.23	–	–
TCCCGACTTTAGATCCGTGTTGGATGGCCTGGGTGGCTGAGGATCGATC (ssDNA) [AMX(399)_H2]	–	5.49	–
TCCCTTGATCCTGGTACATATATTTTCTGGGTGGCTGAGGATCGATC (ssDNA) [AMX(399)_F2]	–	7.37	7.92
TCCCAAGATCGATGCTGGTAGTGTTTTCTGGGTGGCTGAGGATCGATC (ssDNA) [AMX(399)_F6]	–	10	11.9
AUGAUTAGGTTGGGTAGGGTGGTAUCAU (XNA, 2'-OMe 1-5,24-28, rest DNA) [ARC2835]	1.27	–	–
ATGATTAGGTTGGGTAGGGTGGTATCAT (ssDNA) [ARC2833]	2.16	–	–
ACTGCCTAGGTTGGGTAGGGTGGTGGCAGT (ssDNA, PS linkage between nt 9 and 10) [ARC2652]	0.192	–	–
TCCCGATCGGTCCCAAGGGTATTGTTGGTTTGGGTGGCTGAGGATCGATC (ssDNA) [AMX(399)_F7]	–	29.6	34.2
ACTGCCTAGGTTGGGTAGGGTGGTGGCAGT (ssDNA, PS linkage between nt 15 and 16) [ARC2658]	0.253	–	–
ACTGCCTAGGTTGGGTAGGGTGGTGGCAGT (ssDNA, PS linkage between nt 21 and 22) [ARC2664]	0.211	–	–
ACTGCCTAGGTTGGGTAGGGTGGTGGCAGT (ssDNA, PS linkage between nt 4 and 5) [ARC2647]	0.161	–	–
TCCCGCTATTCGATCTTCAATTGGGTGGTCAGGGTGGCTGAGGATCGATC (ssDNA) [AMX(399)_F9]	–	25.2	26
ACUGCCTAGGTTGGGTAGGGTGGTGGCAGU (XNA, 2'-OMe 1-5,27-30, rest DNA) [ARC2825]	1.03	–	–
ACTGCCTAGGTTGGGTAGGGTGGTGGCAGT (ssDNA, PS linkage between nt 22 and 23) [ARC2665]	0.121	–	–
ACTGCCTAGGTTGGGTAGGGTGGTGGCAGT (ssDNA, PS linkage between nt 20 and 21) [ARC2663]	0.18	–	–
ACTGCCTAGGTTGGGTAGGGTGGTGGCAGT (ssDNA, PS linkage between nt 6 and 7) [ARC2649]	0.264	–	–
ACTGCCTAGGTTGGGTAGGGTGGTGGCAGT (ssDNA, PS linkage between nt 8 and 9) [ARC2651]	0.111	–	–
AAUGAUUAGGTTGGGTAGGGTGGUAUCAUU (XNA, 2'-OMe 1-7,24-30, rest DNA) [ARC2827]	4.06	–	–

Binder	Kd [1] [nM]	binding signal [2] [% bound]	binding signal [3] [% bound]
TCCCGAGATCTTTATAGGGTATTGTTGGTTGGGGTGGCTGAGGATCGATC (ssDNA) [AMX(399)_E12]	–	20.3	25.1
TCCCGTGATCTCTGGGGTAACGTCTTGGTGTGGGTGGCTGAGGATCGATC (ssDNA) [AMX(399)_F1]	–	16.7	19.4
ACUGCCTAGGTTGGGTAGGGTGGTGGCAGU (XNA, 2'-OMe 1-6,25,27-30, rest DNA) [ARC2824]	0.73	–	–
ACTGCCTAGGTTGGGTAGGGTGGTGGCAGT (ssDNA, PS linkage between nt 27 and 28) [ARC2670]	0.16	–	–
AATGATTAGGTTGGGTAGGGTGGTATCATT (ssDNA) [ARC2826]	0.77	–	–
ACTGCCTAGGTTGGGTAGGGTGGTGGCAGT (ssDNA, PS linkage between nt 29 and 30) [ARC2672]	0.141	–	–
ACTGCCTAGGTTGGGTAGGGTGGTGGCAGT (ssDNA, PS linkage between nt 19 and 20) [ARC2662]	0.165	–	–
ACTGCCTAGGTTGGGTAGGGTGGTGGCAGT (ssDNA, PS linkage between nt 3 and 4) [ARC2646]	0.169	–	–
ACTGCCTAGGTTGGGTAGGGTGGTGGCAGT (ssDNA, PS linkage between nt 26 and 27) [ARC2669]	0.129	–	–
ACTGCCTAGGTTGGGTAGGGTGGTGGCAGT (ssDNA, PS linkage between nt 7 and 8) [ARC2650]	0.23	–	–
ACTGCCTAGGTTGGGTAGGGTGGTGGCAGT (ssDNA, PS linkage between nt 11 and 12) [ARC2654]	0.095	–	–
AAUGATTAGGTTGGGTAGGGTGGTAUCAUU (XNA, 2'-OMe 1-5,26-30, rest DNA) [ARC2829]	0.93	–	–
ACTGCCTAGGTTGGGTAGGGTGGTGGCAGT (ssDNA, PS linkage between nt 13 and 14) [ARC2656]	0.151	–	–
CUGCCUAGGTTGGGTAGGGTGGUGGCAG (XNA, 2'-OMe 1-6,23,24,26-28, rest DNA) [ARC2830]	15.3	–	–
ACTGCCTAGGTTGGGTAGGGTGGTGGCAGT (ssDNA, PS linkage between nt 25 and 26) [ARC2668]	0.159	–	–
ACTGCCTAGGTTGGGTAGGGTGGTGGCAGT (ssDNA, PS linkage between nt 24 and 25) [ARC2667]	0.459	–	–
ACTGCCTAGGTTGGGTAGGGTGGTGGCAGT (ssDNA, PS linkage between nt 5 and 6) [ARC2648]	0.128	–	–
AUGAUUAGGTTGGGTAGGGTGGUAUCAU (XNA, 2'-OMe 1-6,23-28, rest DNA) [ARC2834]	10.3	–	–
TCCCGCTCGATTTCGAAGAATGGTTGGTTTGGGTGGCTGAGGATCGATC (ssDNA) [AMX(398)_B11]	–	9.76	–
TCCCGAGAGATTCAAAAGGGACTGGGCGGTTGGGTGGCTGAGGATCGATC (ssDNA) [AMX(399)_H4]	–	7.7	–
CUGCCTAGGTTGGGTAGGGTGGTGGCAG (XNA, 2'-OMe 1-5,24,26-28, rest DNA) [ARC2831]	5.12	–	–
ACTGCCTAGGTTGGGTAGGGTGGTGGCAGT (ssDNA, PS linkage between nt 18 and 19) [ARC2661]	0.246	–	–
ACTGCCTAGGTTGGGTAGGGTGGTGGCAGT (ssDNA, PS linkage between nt 2 and 3) [ARC2645]	0.167	–	–
ACTGCCTAGGTTGGGTAGGGTGGTGGCAGT (ssDNA, PS linkage between nt 28 and 29) [ARC2671]	0.158	–	–
